Columns and labels:
[1] = molecular target: HLA-B*15:09; experiment: IEDB peptide-MHC binding, purified MHC/direct/fluorescence; filed as Kd, often an IC50 or EC50 that approximates it; ≥ and ≤ were set here for values at or beyond the usual limits of such assays; conditions: source organism: Mycobacterium tuberculosis str. Haarlem
[2] = molecular target: HLA-A*01:01; experiment: as above
[3] = molecular target: HLA-B*46:01; experiment: as above
[4] = molecular target: HLA-B*39:01; experiment: as above; conditions: source organism: Mycobacterium tuberculosis str. Haarlem
[5] = molecular target: HLA-A*02:11; experiment: as above
[6] = molecular target: HLA-B*27:05; experiment: as above
[7] = molecular target: HLA-A*26:01; experiment: as above; conditions: source organism: Mycobacterium tuberculosis str. Haarlem
[8] = molecular target: HLA-B*58:01; experiment: as above; conditions: source organism: Burkholderia mallei
[9] = molecular target: HLA-A*69:01; experiment: as above; conditions: source organism: Burkholderia mallei
[10] = molecular target: HLA-B*48:01; experiment: as above; conditions: source organism: Burkholderia mallei
[11] = molecular target: HLA-B*51:01; experiment: as above; conditions: source organism: Burkholderia mallei
[12] = molecular target: HLA-B*57:01; experiment: as above; conditions: source organism: Burkholderia mallei
[13] = molecular target: HLA-B*15:01; experiment: as above; conditions: source organism: Burkholderia mallei
[14] = molecular target: HLA-B*15:17; experiment: as above; conditions: source organism: Burkholderia mallei
[15] = molecular target: HLA-A*03:01; experiment: as above
[16] = molecular target: HLA-A*02:12; experiment: as above
[17] = molecular target: HLA-A*31:01; experiment: as above; conditions: source organism: Burkholderia mallei
[18] = molecular target: HLA-B*40:01; experiment: as above; conditions: source organism: Burkholderia mallei
[19] = molecular target: HLA-A*02:01; experiment: as above; conditions: source organism: Burkholderia mallei
[20] = molecular target: HLA-B*18:01; experiment: as above; conditions: source organism: Burkholderia mallei
[21] = molecular target: HLA-A*11:01; experiment: as above; conditions: source organism: Burkholderia mallei
[22] = molecular target: HLA-A*23:01; experiment: as above
[23] = molecular target: HLA-A*24:03; experiment: as above
[24] = molecular target: HLA-B*07:02; experiment: IEDB peptide-MHC binding, purified MHC/competitive/fluorescence; filed as Kd, often an IC50 or EC50 that approximates it; ≥ and ≤ were set here for values at or beyond the usual limits of such assays
[25] = molecular target: HLA-B*51:01; experiment: as above
[26] = molecular target: HLA-B*35:01; experiment: as above
[27] = molecular target: HLA-C*05:01; experiment: IEDB peptide-MHC binding, purified MHC/direct/fluorescence; filed as Kd, often an IC50 or EC50 that approximates it; ≥ and ≤ were set here for values at or beyond the usual limits of such assays
[28] = molecular target: HLA-B*08:01; experiment: IEDB peptide-MHC binding, purified MHC/competitive/fluorescence; filed as Kd, often an IC50 or EC50 that approximates it; ≥ and ≤ were set here for values at or beyond the usual limits of such assays; conditions: source organism: Yersinia pestis Nepal516
[29] = molecular target: HLA-A*02:19; experiment: IEDB peptide-MHC binding, purified MHC/direct/fluorescence; filed as Kd, often an IC50 or EC50 that approximates it; ≥ and ≤ were set here for values at or beyond the usual limits of such assays
[30] = molecular target: HLA-A*02:16; experiment: as above
[31] = molecular target: HLA-A*68:02; experiment: as above
[32] = molecular target: HLA-A*02:03; experiment: as above
[33] = molecular target: HLA-A*29:02; experiment: as above
[34] = molecular target: HLA-B*46:01; experiment: IEDB peptide-MHC binding, purified MHC/competitive/fluorescence; filed as Kd, often an IC50 or EC50 that approximates it; ≥ and ≤ were set here for values at or beyond the usual limits of such assays
[35] = molecular target: HLA-B*39:01; experiment: as above
[36] = molecular target: HLA-A*26:01; experiment: as above
[37] = molecular target: HLA-A*69:01; experiment: as above; conditions: source organism: Orthohantavirus puumalaense
[38] = molecular target: HLA-B*57:01; experiment: as above
[39] = molecular target: HLA-B*15:01; experiment: as above
[40] = molecular target: HLA-B*15:17; experiment: as above
[41] = molecular target: HLA-B*27:03; experiment: as above
[42] = molecular target: HLA-A*02:01; experiment: as above
[43] = molecular target: HLA-B*18:01; experiment: as above
[44] = molecular target: HLA-A*02:12; experiment: as above; conditions: source organism: Giardia lamblia ATCC 50803
[45] = source organism: Burkholderia mallei
[46] = source organism: Mycobacterium tuberculosis str. Haarlem
[47] = source organism: Yersinia pestis Nepal516
[48] = source organism: Orthohantavirus puumalaense
[49] = source organism: Zaire ebolavirus
[50] = source organism: Influenza A virus (A/Leningrad/1954/1(H1N1))
[51] = source organism: Bacillus anthracis str. A0488
[52] = source organism: West Nile virus

For APAKKAAAK, the Kd [1] was ≥ 20 µM, the Kd [2, 45] was ≥ 20 µM and the Kd [3, 45] was ≥ 20 µM. For the same sequence, the Kd [4] was ≥ 20 µM, the Kd [5, 46] was ≥ 20 µM and the Kd [6, 45] was ≥ 20 µM. For the same sequence, the Kd [7] was ≥ 20 µM, the Kd [8] was ≥ 20 µM and the Kd [9] was ≥ 20 µM. For the same sequence, the Kd [10] was ≥ 20 µM, the Kd [11] was ≥ 20 µM and the Kd [12] was ≥ 20 µM. For the same sequence, the Kd [13] was ≥ 20 µM, the Kd [14] was ≥ 20 µM and the Kd [15, 45] was ≥ 20 µM. The Kd [16, 46] was ≥ 20 µM, the Kd [17] was ≥ 20 µM and the Kd [18] was ≥ 20 µM. For the same sequence, the Kd [19] was ≥ 20 µM, the Kd [20] was ≥ 20 µM and the Kd [21] was ≥ 20 µM.
In the case of AYLFTPLFK, the Kd [22, 46] is reported as 0.356 µM and the Kd [23, 46] is reported as 0.185 µM.
For EPLAVIASL, the Kd [24, 47] was ≥ 20 µM, the Kd [25, 47] was ≥ 20 µM and the Kd [26, 47] was 0.0017 µM.
FPIKRISAV was tested, and the Kd [27, 47] was ≥ 20 µM, the Kd [25, 47] was 0.268 µM and the Kd [28] was 0.0512 µM. For the same sequence, the Kd [26, 47] was 0.0004 µM.
LRYGNVLDV was tested, and the Kd ([29]; source organism: Choclo virus) was ≥ 20 µM, the Kd ([30]; source organism: Choclo virus) was ≥ 20 µM and the Kd ([5]; source organism: Choclo virus) was ≥ 20 µM. For the same sequence, the Kd ([6]; source organism: Isla Vista hantavirus) was 0.951 µM, the Kd ([31]; source organism: Choclo virus) was ≥ 20 µM and the Kd ([32]; source organism: Choclo virus) was ≥ 20 µM. The Kd ([22]; source organism: Choclo virus) was ≥ 20 µM, the Kd ([15]; source organism: Choclo virus) was ≥ 20 µM and the Kd ([16]; source organism: Choclo virus) was ≥ 20 µM. The Kd ([33]; source organism: Choclo virus) was ≥ 20 µM, the Kd ([23]; source organism: Choclo virus) was ≥ 20 µM and the Kd [34, 48] was ≥ 20 µM. The Kd [35, 48] was ≥ 20 µM, the Kd [36, 48] was ≥ 20 µM and the Kd [37] was ≥ 20 µM. For the same sequence, the Kd [25, 48] was ≥ 20 µM, the Kd [38, 48] was ≥ 20 µM and the Kd [39, 48] was ≥ 20 µM. For the same sequence, the Kd [40, 48] was ≥ 20 µM, the Kd [41, 48] was ≥ 20 µM and the Kd [42, 48] was ≥ 20 µM. The Kd [43, 48] was ≥ 20 µM.
LSDLCNFLV was tested, and the Kd ([2]; source organism: Ebola virus - Gabon (1994-1997)) was 0.0671 µM, the Kd [29, 49] was ≥ 20 µM and the Kd [30, 49] was ≥ 20 µM. The Kd [5, 49] was ≥ 20 µM, the Kd [31, 49] was ≥ 20 µM and the Kd [32, 49] was ≥ 20 µM. For the same sequence, the Kd [27, 49] was 0.013 µM, the Kd [22, 49] was ≥ 20 µM and the Kd [15, 49] was ≥ 20 µM. For the same sequence, the Kd [16, 49] was ≥ 20 µM, the Kd [33, 49] was ≥ 20 µM and the Kd [23, 49] was ≥ 20 µM. The Kd [34, 49] was ≥ 20 µM, the Kd [35, 49] was ≥ 20 µM and the Kd [36, 49] was ≥ 20 µM. For the same sequence, the Kd [25, 49] was ≥ 20 µM, the Kd [38, 49] was ≥ 20 µM and the Kd [39, 49] was ≥ 20 µM. For the same sequence, the Kd [40, 49] was ≥ 20 µM, the Kd [41, 49] was ≥ 20 µM and the Kd [42, 49] was ≥ 20 µM. The Kd [43, 49] was ≥ 20 µM.
For LVSLGAISF, the Kd [24, 50] was ≥ 20 µM and the Kd [26, 50] was 0.29 µM.
In the case of MTVFSYKAF, the Kd [39, 51] is reported as 0.19 µM and the Kd [26, 51] is reported as 0.154 µM.
With SVFQGALFA the Kd [44] was 11 µM and the Kd ([42]; source organism: Giardia lamblia ATCC 50803) was 1.89 µM.
In the case of TVSPSAPTY, the Kd [3, 52] is reported as ≥ 20 µM and the Kd [26, 52] is reported as ≤ 0.0001 µM.
